± gives the uncertainty stated by the source.
B1: Intersectin-1, residues 1156 to 1213; numbered along this chain, Q15811 (parent)
chain: AVCQVIGMYDYTAQNDDELAFNKGQIINVLNKEDPDWWKGEVNGQVGLFPSNYVKLTT
B2: POU domain, class 5, transcription factor 1, residues 134 to 212; numbered along this chain, Q01860 (parent)
chain: EESQDIKALQKELEQFAKLLKQKRITLGYTQADVGLTLGVLFGKVFSQTTICRFEALQLSFKNMCKLRPLLQKWVEEAD

Variants of: B1
Assay: abundance fitness (aPCA) (normalised: wild type 0, dead -1); higher = more abundant; growth selection in yeast, the domain comes from the species named
Conditions: Homo sapiens

V54M and V54Y are within error of each other in abundance fitness: -0.755 ± 0.27 for the first, -0.766 ± 0.26 for the second.

Going from V54L to E18Y, the abundance fitness rises from -0.854 ± 0.14 to -0.254 ± 0.16.

E18V and E18N are within error of each other in abundance fitness: -0.722 ± 0.12 for the first, -0.954 ± 0.37 for the second.

E18D and E18S are within error of each other in abundance fitness: -0.263 ± 0.15 for the first, -0.397 ± 0.11 for the second.

G24I and G24A are within error of each other in abundance fitness: -0.682 ± 0.26 for the first, -0.854 ± 0.12 for the second.

G24E and I6N are within error of each other in abundance fitness: -0.895 ± 0.15 for the first, -0.765 ± 0.2 for the second.

I6F and I6L are within error of each other in abundance fitness: -0.619 ± 0.17 for the first, -0.47 ± 0.1 for the second.

Going from G7R to G7C, the abundance fitness rises from -0.849 ± 0.11 to 0.176 ± 0.12.

First: G7A
Second: V46I
The abundance fitness of the first is higher: 0.54 ± 0.098 for the first, -0.006 ± 0.13 for the second.

Compared with P50R, P50T is lower in abundance fitness: -0.323 ± 0.087 for the first, -0.773 ± 0.19 for the second.

P50F and V29Y are within error of each other in abundance fitness: -0.459 ± 0.2 for the first, -0.504 ± 0.24 for the second.

Compared with V29G, K55A is higher in abundance fitness: -0.742 ± 0.098 for the first, -0.146 ± 0.1 for the second.

First: K55S
Second: K55W
The abundance fitness of the first is higher: -0.004 ± 0.084 for the first, -0.678 ± 0.17 for the second.

First: L48H
Second: L48I
The abundance fitness of the first is lower: -0.335 ± 0.18 for the first, 0.063 ± 0.15 for the second.

Compared with L48D, A1T is higher in abundance fitness: -0.761 ± 0.22 for the first, -0.213 ± 0.23 for the second.

A1S and A1V are within error of each other in abundance fitness: 0.127 ± 0.43 for the first, -0.068 ± 0.18 for the second.

N52D and N52G are within error of each other in abundance fitness: -0.079 ± 0.14 for the first, -0.253 ± 0.076 for the second.

Variants of: B2
Assay: as above
Conditions: Homo sapiens

I6Q and I6F are within error of each other in abundance fitness: 0.063 ± 0.14 for the first, 0.052 ± 0.27 for the second.

I6D and I6S are within error of each other in abundance fitness: 0.122 ± 0.16 for the first, -0.054 ± 0.14 for the second.

Compared with I6C, I6K is higher in abundance fitness: -0.417 ± 0.43 for the first, 0.359 ± 0.12 for the second.

I6P and I6M are within error of each other in abundance fitness: -0.015 ± 0.14 for the first, 0.1 ± 0.12 for the second.

I6E and I6V are within error of each other in abundance fitness: -0.452 ± 0.17 for the first, -0.749 ± 0.2 for the second.

Compared with I6W, I6T is higher in abundance fitness: -0.351 ± 0.17 for the first, 0.195 ± 0.12 for the second.

I6N and I6A are within error of each other in abundance fitness: -0.082 ± 0.23 for the first, 0.005 ± 0.085 for the second.

I6G and I6L are within error of each other in abundance fitness: -0.122 ± 0.077 for the first, -0.143 ± 0.1 for the second.

K7T and K7S are within error of each other in abundance fitness: -0.162 ± 0.1 for the first, -0.05 ± 0.063 for the second.

K7M and K7Q are within error of each other in abundance fitness: -0.319 ± 0.12 for the first, -0.142 ± 0.1 for the second.

K7P and K7C are within error of each other in abundance fitness: -0.124 ± 0.099 for the first, -0.132 ± 0.086 for the second.

K7I and K7W are within error of each other in abundance fitness: -0.391 ± 0.22 for the first, -0.173 ± 0.074 for the second.

K7Y and K7H are within error of each other in abundance fitness: -0.12 ± 0.14 for the first, -0.193 ± 0.15 for the second.

Compared with K7F, K7E is higher in abundance fitness: -0.257 ± 0.13 for the first, -0.025 ± 0.075 for the second.

First: K7G
Second: K7D
The abundance fitness of the first is lower: -0.193 ± 0.055 for the first, 0.061 ± 0.098 for the second.

K7A and K7V are within error of each other in abundance fitness: -0.007 ± 0.062 for the first, -0.085 ± 0.065 for the second.

K7L and K7N are within error of each other in abundance fitness: -0.073 ± 0.061 for the first, -0.022 ± 0.14 for the second.

K11L and K11D are within error of each other in abundance fitness: -0.153 ± 0.1 for the first, 0.168 ± 0.35 for the second.

K11S and K11M are within error of each other in abundance fitness: 0.019 ± 0.12 for the first, 0.076 ± 0.14 for the second.

K11I and K11P are within error of each other in abundance fitness: 0.062 ± 0.33 for the first, 0.23 ± 0.39 for the second.

K11W and K11E are within error of each other in abundance fitness: -0.198 ± 0.13 for the first, -0.031 ± 0.11 for the second.

K11A and K11G are within error of each other in abundance fitness: -0.201 ± 0.14 for the first, -0.168 ± 0.089 for the second.

K11V and K11T are within error of each other in abundance fitness: -0.21 ± 0.12 for the first, -0.388 ± 0.3 for the second.

K11N and K11Q are within error of each other in abundance fitness: 0.048 ± 0.28 for the first, 0.057 ± 0.17 for the second.

K11C and Q10G are within error of each other in abundance fitness: -0.369 ± 0.27 for the first, -0.239 ± 0.082 for the second.

Q10M and Q10P are within error of each other in abundance fitness: -0.063 ± 0.16 for the first, -0.214 ± 0.17 for the second.

Q10F and Q10W are within error of each other in abundance fitness: 0.117 ± 0.32 for the first, 0.305 ± 0.084 for the second.

Q10Y and Q10R are within error of each other in abundance fitness: 0.042 ± 0.33 for the first, 0.137 ± 0.063 for the second.

Q10E and Q10C are within error of each other in abundance fitness: -0.354 ± 0.16 for the first, -0.477 ± 0.29 for the second.

Q10D and Q10A are within error of each other in abundance fitness: -0.128 ± 0.18 for the first, -0.169 ± 0.12 for the second.

Q10S and Q10I are within error of each other in abundance fitness: -0.111 ± 0.097 for the first, -0.373 ± 0.34 for the second.

Q10N and Q10T are within error of each other in abundance fitness: -0.086 ± 0.24 for the first, -0.184 ± 0.18 for the second.

Q10L and Q10H are within error of each other in abundance fitness: -0.214 ± 0.11 for the first, -0.31 ± 0.49 for the second.

D5T and D5A are within error of each other in abundance fitness: -0.141 ± 0.4 for the first, -0.126 ± 0.21 for the second.

D5P and D5G are within error of each other in abundance fitness: 0.062 ± 0.42 for the first, -0.331 ± 0.2 for the second.

D5S and D5V are within error of each other in abundance fitness: -0.191 ± 0.41 for the first, -0.018 ± 0.41 for the second.

D5C and D5N are within error of each other in abundance fitness: 0.057 ± 0.35 for the first, 0.092 ± 0.41 for the second.

D5E and L9E are within error of each other in abundance fitness: -0.343 ± 0.42 for the first, 0.017 ± 0.089 for the second.

First: L9A
Second: L9S
The abundance fitness of the first is lower: -0.066 ± 0.088 for the first, 0.136 ± 0.078 for the second.

Compared with L9V, L9G is lower in abundance fitness: 0.044 ± 0.076 for the first, -0.127 ± 0.07 for the second.

L9Y and L9R are within error of each other in abundance fitness: -0.164 ± 0.24 for the first, -0.023 ± 0.067 for the second.

L9T and L9D are within error of each other in abundance fitness: -0.171 ± 0.18 for the first, -0.385 ± 0.2 for the second.

L9N and L9H are within error of each other in abundance fitness: -0.086 ± 0.22 for the first, -0.215 ± 0.32 for the second.

First: L9C
Second: L9K
The abundance fitness of the first is lower: -0.123 ± 0.13 for the first, 0.28 ± 0.11 for the second.

Going from L9Q to L9F, the abundance fitness falls from 0.106 ± 0.12 to -0.316 ± 0.29.

L9I and L9W are within error of each other in abundance fitness: -0.331 ± 0.4 for the first, -0.254 ± 0.087 for the second.

Compared with L9P, Q4L is lower in abundance fitness: 0.195 ± 0.12 for the first, -0.067 ± 0.09 for the second.

Q4I and Q4P are within error of each other in abundance fitness: -0.309 ± 0.24 for the first, -0.135 ± 0.12 for the second.

Q4V and Q4G are within error of each other in abundance fitness: -0.061 ± 0.088 for the first, -0.064 ± 0.07 for the second.

Q4N and Q4F are within error of each other in abundance fitness: -0.253 ± 0.32 for the first, -0.059 ± 0.24 for the second.

Q4H and Q4E are within error of each other in abundance fitness: -0.051 ± 0.4 for the first, -0.13 ± 0.1 for the second.

Q4C and Q4S are within error of each other in abundance fitness: -0.211 ± 0.22 for the first, -0.258 ± 0.13 for the second.

Going from Q4A to Q4Y, the abundance fitness rises from -0.097 ± 0.081 to 0.291 ± 0.19.

Q4T and Q4D are within error of each other in abundance fitness: 0.005 ± 0.11 for the first, 0.046 ± 0.14 for the second.

Q4M and Q4K are within error of each other in abundance fitness: -0.118 ± 0.18 for the first, -0.011 ± 0.16 for the second.

E2G and A8Q are within error of each other in abundance fitness: 0.211 ± 0.26 for the first, 0.182 ± 0.3 for the second.

A8C and A8P are within error of each other in abundance fitness: 0.222 ± 0.21 for the first, 0.697 ± 0.5 for the second.

A8L and A8E are within error of each other in abundance fitness: -0.318 ± 0.38 for the first, -0.08 ± 0.4 for the second.

A8G and A8V are within error of each other in abundance fitness: -0.148 ± 0.14 for the first, 0.083 ± 0.25 for the second.

A8T and A8S are within error of each other in abundance fitness: 0.429 ± 0.3 for the first, 0.171 ± 0.21 for the second.

S3F and S3L are within error of each other in abundance fitness: -0.082 ± 0.27 for the first, 0.163 ± 0.38 for the second.

S3V and S3G are within error of each other in abundance fitness: 0.323 ± 0.24 for the first, 0.131 ± 0.17 for the second.

E1W and E1S are within error of each other in abundance fitness: -0.244 ± 0.33 for the first, -0.58 ± 0.45 for the second.

Compared with E1G, E1V is lower in abundance fitness: 0.053 ± 0.073 for the first, -0.45 ± 0.16 for the second.

E1M and E1R are within error of each other in abundance fitness: 0.273 ± 0.15 for the first, 0.064 ± 0.14 for the second.

E1Q and E1L are within error of each other in abundance fitness: 0.066 ± 0.31 for the first, -0.135 ± 0.23 for the second.

In the case of E1K, the abundance fitness is reported as -0.034 ± 0.24.
